Results published in article PMC5887453 (Nucleic Acids Research, 2018).

Tests used:
Assay in all cases: native gel or EMSA
PhoEF-2 L214S/V216S = biological target: T1, PhoEF-2 L214S/V216S (Pyrococcus horikoshii, UniProt O59521 1-732, L214S | V216S)
T1 sequence (looked up): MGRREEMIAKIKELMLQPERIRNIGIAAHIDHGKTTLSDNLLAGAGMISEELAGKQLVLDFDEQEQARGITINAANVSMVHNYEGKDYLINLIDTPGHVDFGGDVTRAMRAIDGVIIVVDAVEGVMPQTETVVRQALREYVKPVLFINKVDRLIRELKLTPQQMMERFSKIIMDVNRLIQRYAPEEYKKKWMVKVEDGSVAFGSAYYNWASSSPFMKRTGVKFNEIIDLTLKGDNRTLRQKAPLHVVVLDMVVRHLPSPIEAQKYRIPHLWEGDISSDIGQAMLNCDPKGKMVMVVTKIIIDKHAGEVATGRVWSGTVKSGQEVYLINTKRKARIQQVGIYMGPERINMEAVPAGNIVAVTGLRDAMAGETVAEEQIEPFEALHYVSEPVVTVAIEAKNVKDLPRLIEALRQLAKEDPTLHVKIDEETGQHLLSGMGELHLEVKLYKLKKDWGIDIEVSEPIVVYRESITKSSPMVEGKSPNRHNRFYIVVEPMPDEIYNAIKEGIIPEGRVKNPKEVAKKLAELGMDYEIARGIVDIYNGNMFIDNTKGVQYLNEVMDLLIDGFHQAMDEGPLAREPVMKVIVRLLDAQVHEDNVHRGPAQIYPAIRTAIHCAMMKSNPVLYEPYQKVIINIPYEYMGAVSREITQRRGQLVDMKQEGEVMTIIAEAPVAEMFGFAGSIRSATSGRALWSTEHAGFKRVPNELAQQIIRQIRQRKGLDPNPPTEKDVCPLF

PhoEF-2 K225S = biological target: T2, PhoEF-2 K225S (Pyrococcus horikoshii, UniProt O59521 1-732, K225S)
T2 sequence (looked up): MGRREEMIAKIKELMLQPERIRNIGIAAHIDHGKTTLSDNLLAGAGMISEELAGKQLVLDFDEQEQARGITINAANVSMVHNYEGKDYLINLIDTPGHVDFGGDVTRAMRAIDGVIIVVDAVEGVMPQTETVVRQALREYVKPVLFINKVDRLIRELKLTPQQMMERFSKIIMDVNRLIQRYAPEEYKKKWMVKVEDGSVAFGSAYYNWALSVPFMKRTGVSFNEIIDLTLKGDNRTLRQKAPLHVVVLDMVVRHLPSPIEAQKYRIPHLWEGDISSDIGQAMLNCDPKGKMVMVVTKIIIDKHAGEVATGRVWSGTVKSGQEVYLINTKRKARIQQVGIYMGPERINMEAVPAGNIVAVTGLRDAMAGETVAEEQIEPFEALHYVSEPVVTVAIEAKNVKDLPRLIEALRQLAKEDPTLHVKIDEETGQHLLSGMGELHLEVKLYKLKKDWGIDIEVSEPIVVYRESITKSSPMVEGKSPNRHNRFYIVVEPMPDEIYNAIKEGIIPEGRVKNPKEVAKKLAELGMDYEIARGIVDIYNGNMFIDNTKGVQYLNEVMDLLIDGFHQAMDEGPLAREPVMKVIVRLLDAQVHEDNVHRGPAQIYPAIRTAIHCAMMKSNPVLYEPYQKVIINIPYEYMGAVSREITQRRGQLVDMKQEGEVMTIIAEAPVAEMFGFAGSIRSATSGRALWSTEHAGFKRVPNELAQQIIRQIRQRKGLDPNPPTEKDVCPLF

PhoEF-2 N227S = biological target: T3, PhoEF-2 N227S (Pyrococcus horikoshii, UniProt O59521 1-732, N227S)
T3 sequence (looked up): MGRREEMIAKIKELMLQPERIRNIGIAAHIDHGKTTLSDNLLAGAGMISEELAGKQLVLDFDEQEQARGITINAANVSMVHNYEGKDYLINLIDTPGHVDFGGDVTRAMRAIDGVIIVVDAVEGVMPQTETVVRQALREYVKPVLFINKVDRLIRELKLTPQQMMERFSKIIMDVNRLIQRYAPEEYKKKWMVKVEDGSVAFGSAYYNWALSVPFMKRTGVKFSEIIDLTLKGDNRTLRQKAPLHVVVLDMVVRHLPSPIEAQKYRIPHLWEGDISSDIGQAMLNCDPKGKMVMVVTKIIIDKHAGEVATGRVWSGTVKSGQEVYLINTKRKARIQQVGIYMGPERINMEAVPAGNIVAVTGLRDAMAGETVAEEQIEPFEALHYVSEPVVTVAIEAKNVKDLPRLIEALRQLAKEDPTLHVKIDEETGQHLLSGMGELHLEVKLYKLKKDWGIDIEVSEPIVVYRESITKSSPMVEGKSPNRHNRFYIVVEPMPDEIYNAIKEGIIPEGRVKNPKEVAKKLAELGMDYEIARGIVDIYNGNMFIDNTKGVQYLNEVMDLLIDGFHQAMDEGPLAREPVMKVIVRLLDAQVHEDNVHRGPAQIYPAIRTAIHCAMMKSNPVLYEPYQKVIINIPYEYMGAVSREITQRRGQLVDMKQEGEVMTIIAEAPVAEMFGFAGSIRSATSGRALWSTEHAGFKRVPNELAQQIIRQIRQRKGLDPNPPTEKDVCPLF

Measured: binding result

B1: Pyrococcus horikoshii ribosomal stalk protein P1 (natural protein, UniProt O57705 1-108, looked up)
chain: MEYVYAALLLHSVGKEINEENLKAVLQAAGVEPEEARIKALVAALEGVNIDEVIEKAAMPVAVAAAPAAAPAEAGGEEKKEEEKKEEEEKEEEVSEEEALAGLSALFG
modifications: in the SPR only: biotin on amino groups via a PEG linker (EZ-Link NHS-PEG4-Biotin)
binds: all assays above
